Laboratory results reported in the supplement of paper PMC9233669.
Variants at the floor of the assay were thinned out.

Columns and labels:
[1] = tested on: biotinyl-Leu-oxazolone; assay: self-aminoacylation, catalytic enhancement (BLO) (fold over background); higher = more active; k-Seq, kA / k0A0; sequences stand for … in GGGAAUGGAUCCACAUCUACGAAUUC…UUCACUGCAGACUUGACGAAGCUG
Procedure, shortened: (§1)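 Catalytic enhancement equals the median kA over the uncatalyzed rate, the latter read from the low-activity peak of a bimodal Gaussian fit. Values of kA came from fitting each sequence's fraction reacted to a pseudo-first-order model, with 1000 bootstraps. Reacted RNA was captured with streptavidin and quantified by triplicate qPCR and Illumina sequencing after 90 minutes at room temperature with 2–1250 μM biotinyl-aminoacyl-oxazolone and 0.43 μM mutagenized RNA pools bearing a 21-nt variable region.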

[2] = tested on: biotinyl-Met-oxazolone; assay: self-aminoacylation, catalytic enhancement (BMO) (fold over background); higher = more active; k-Seq, kA / k0A0; sequences stand for … in GGGAAUGGAUCCACAUCUACGAAUUC…UUCACUGCAGACUUGACGAAGCUG
Procedure, shortened: as §1

[3] = tested on: biotinyl-Ile-oxazolone; assay: self-aminoacylation, catalytic enhancement (BIO) (fold over background); higher = more active; k-Seq, kA / k0A0; sequences stand for … in GGGAAUGGAUCCACAUCUACGAAUUC…UUCACUGCAGACUUGACGAAGCUG
Procedure, shortened: as §1

[4] = tested on: biotinyl-Trp-oxazolone; assay: self-aminoacylation, catalytic enhancement (BWO) (fold over background); higher = more active; k-Seq, kA / k0A0; sequences stand for … in GGGAAUGGAUCCACAUCUACGAAUUC…UUCACUGCAGACUUGACGAAGCUG
Procedure, shortened: as §1

[5] = tested on: biotinyl-Phe-oxazolone; assay: self-aminoacylation, catalytic enhancement (BFO) (fold over background); higher = more active; k-Seq, kA / k0A0; sequences stand for … in GGGAAUGGAUCCACAUCUACGAAUUC…UUCACUGCAGACUUGACGAAGCUG
Procedure, shortened: as §1

[6] = tested on: biotinyl-Val-oxazolone; assay: self-aminoacylation, catalytic enhancement (BVO) (fold over background); higher = more active; k-Seq, kA / k0A0; sequences stand for … in GGGAAUGGAUCCACAUCUACGAAUUC…UUCACUGCAGACUUGACGAAGCUG
Procedure, shortened: as §1

Sequence | self-aminoacylation [1] | self-aminoacylation [2] | self-aminoacylation [3] | self-aminoacylation [4] | self-aminoacylation [5] | self-aminoacylation [6]
AACACCCUGGUCAUCGAGUGA [Fam2.1 aminoacylation ribozyme variant] | 6.79 | 7.5 | 4.52 | 8.34 | 7.58 | 4.39
AAGUUUGCUAUUAGUCACAAG [Fam3.1 aminoacylation ribozyme variant] | 1.16 | 1.24 | 1.19 | 1.28 | 1.85 | 1.3
AAUCAGCUAGGUCAUCGGGUG [Fam2.2 aminoacylation ribozyme variant] | 5.01 | 4.97 | 5.2 | 7.54 | 37.5 | 6.64
AUUCACCGAGGUCUUCGGGUG [Fam2.2 aminoacylation ribozyme variant] | 7.58 | 4.94 | 3.97 | 6.52 | 40.7 | 4.69
UUUACCCUGGUCAUGGAGUGA [Fam2.1 aminoacylation ribozyme variant] | 3.04 | 3.46 | 2.58 | 3.99 | 9.54 | 2.44
AUUCACCUAGGGCAUCGGGAG [Fam2.2 aminoacylation ribozyme variant] | 1.1 | 0.855 | 1.07 | 1.08 | 0.472 | 1.04
AUUACCCUUUUCAUCGAGUGA [Fam2.1 aminoacylation ribozyme variant] | 6.32 | 6.39 | 2.88 | 7.27 | 25.2 | 3.68
AUUCACCUAGGGCAUGGGGUG [Fam2.2 aminoacylation ribozyme variant] | 12 | 10.1 | 5.82 | 9.2 | 81.4 | 5.39
AUUCAACUAGGUCAUGGGGUG [Fam2.2 aminoacylation ribozyme variant] | 5.63 | 4.28 | 2.96 | 4.16 | 27.7 | 3.16
AUGACCCUGAUCAUCGAGUGA [Fam2.1 aminoacylation ribozyme variant] | 5.85 | 5.56 | 2.73 | 6.06 | 19.5 | 2.84
AUGACCCUGGUCAUCGAGUGG [Fam2.1 aminoacylation ribozyme variant] | 31 | 30 | 7.48 | 20.9 | 215 | 8.22
AUUACCCUUGUCAUCGGGUGA [Fam2.1 aminoacylation ribozyme variant] | 9.03 | 8.35 | 4.14 | 9.41 | 45.3 | 4.39
AUUGCCCUGGUCAUCGGGUGA [Fam2.1 aminoacylation ribozyme variant] | 67.3 | 58.1 | 23.1 | 73.4 | 317 | 30
AUUACCCUGGUCAUCGGGCGA [Fam2.1 aminoacylation ribozyme variant] | 10 | 8.99 | 4.15 | 8.14 | 20.1 | 4.62
AGGUUUGCUAAUAGUCGGAAG [Fam3.1 aminoacylation ribozyme variant] | 1.02 | 1.24 | 1.22 | 3.12 | 12.2 | 0.944
AUUACCCUUGUAAUCGAGUGA [Fam2.1 aminoacylation ribozyme variant] | 16.3 | 16.4 | 6.93 | 21.1 | 127 | 6.66
AUUACCCUGGUGAUCUAGUGA [Fam2.1 aminoacylation ribozyme variant] | 6.59 | 7.61 | 3.11 | 8.61 | 45.1 | 3.29
AUUCACCCGGGUCAUCGGGUG [Fam2.2 aminoacylation ribozyme variant] | 6.18 | 5.16 | 4.1 | 6.14 | 42.6 | 4.44
AAUUUUGCUAAUAGUGGCAAG [Fam3.1 aminoacylation ribozyme variant] | 0.633 | 0.798 | 0.771 | 0.652 | 0.836 | 0.632
AAGUUUGCGAAUAGUCGCUAG [Fam3.1 aminoacylation ribozyme variant] | 0.918 | 1.45 | 1.38 | 1.4 | 3.9 | 1
CGACUUCAAACACUCGGUCUG [Fam1A.1 aminoacylation ribozyme variant] | 1.39 | 1.61 | 1.33 | 2.31 | 2.7 | 1.52
AUACUUCAAACAAUCGGACUG [Fam1A.1 aminoacylation ribozyme variant] | 0.522 | 0.548 | 0.748 | 2.34 | 3.32 | 0.666
AUUCCCGUAGGUCAUCGGGUG [Fam2.2 aminoacylation ribozyme variant] | 32.4 | 25.3 | 17 | 25.3 | 259 | 20.2
AUUACACUGGGCAUCGAGUGA [Fam2.1 aminoacylation ribozyme variant] | 6.5 | 5.92 | 3.53 | 7.85 | 27.1 | 3.44
AUUCACCAACGUCAUCGGGUG [Fam2.2 aminoacylation ribozyme variant] | 11.8 | 8.41 | 5.28 | 7.38 | 74 | 5.26
